Laboratory results: patent US20240124553A1
Where two headings read alike, the source gives them in different places.

Tests used:
[1] = molecular target: CHIKV virus-like particles (strain 37997) (chikungunya virus)
[2] = molecular target: CHIKV virus-like particles (strain 37997) (chikungunya virus); remark: listed apart in the source
[3] = molecular target: CHIKV strain 181/25 (virions; also E2-E1 shown on infected cells) (chikungunya virus); assay: ELISA, CHIKV-181/25 captured with a human anti-CHIKV mAb, anti-mouse IgG-HRP
[4] = molecular target: CHIKV E2-6K-E1 envelope proteins (strain S27) with E2 Q195A (Chikungunya virus strain S27) (UniProt Q8JUX5); assay: flow cytometry, transfected 293T cells

Binder	EC50 (read off the curve) [1] [µg/mL]	EC50 (read off the curve) [2] [µg/mL]	EC50 (read off the curve) [3] [µg/mL]	Binding Reactivity (% WT) [4] [% WT]
Mxra8-Fc (extracellular domain of mouse Mxra8 fused to mouse IgG2b Fc) (Fc fusion) SGPSGTAAASSSLVSESVVSLAAGTQAVLRCQSPRMVWTQDRLHDRQRVVHWDLSGGPGSQRRRLVDMYSAGEQRVYEPRDRDRLLLSPSAFHDGNFSLLIRAVDRGDEGVYTCNLHHHYCHLDESLAVRLEVTEDPLLSRAYWDGEKEVLVVAHGAPALMTCINRAHVWTDRHLEEAQQVVHWDRQLPGVSHDRADRLLDLYASGERRAYGPPFLRDRVSVNTNAFARGDFSLRIDELERADEGIYSCHLHHHYCGLHERRVFHLQVTEPAFEPPARASPGNGSGHSSAPSPDPTLTRGHSIINVIVPEDHTHPSGPISTINPCPPCKECHKCPAPNLEGGPSVFIFPPNIKDVLMISLTPKVTCVVVDVSEDDPDVQISWFVNNVEVHTAQTQTHREDYNSTIRVVSTLPIQHQDWMSGKEFKCKVNNKDLPSPIERTISKIKGLVRAPQVYILPPPAEQLSRKDVSLTCLVVGFNPGDISVEWTSNGHTEENYKDTAPVLDSDGSYFIYSKLNMKTSKWEKTDSFSCNVRHEGLKNYYLKKTISRSPGK	0.01	0.01	0.1	–
Mxra8-Fc (mouse Mxra8 extracellular domain fused to mouse IgG2b Fc) (Fc fusion) SGPSGTAAASSSLVSESVVSLAAGTQAVLRCQSPRMVWTQDRLHDRQRVVHWDLSGGPGSQRRRLVDMYSAGEQRVYEPRDRDRLLLSPSAFHDGNFSLLIRAVDRGDEGVYTCNLHHHYCHLDESLAVRLEVTEDPLLSRAYWDGEKEVLVVAHGAPALMTCINRAHVWTDRHLEEAQQVVHWDRQLPGVSHDRADRLLDLYASGERRAYGPPFLRDRVSVNTNAFARGDFSLRIDELERADEGIYSCHLHHHYCGLHERRVFHLQVTEPAFEPPARASPGNGSGHSSAPSPDPTLTRGHSIINVIVPEDHTHPSGPISTINPCPPCKECHKCPAPNLEGGPSVFIFPPNIKDVLMISLTPKVTCVVVDVSEDDPDVQISWFVNNVEVHTAQTQTHREDYNSTIRVVSTLPIQHQDWMSGKEFKCKVNNKDLPSPIERTISKIKGLVRAPQVYILPPPAEQLSRKDVSLTCLVVGFNPGDISVEWTSNGHTEENYKDTAPVLDSDGSYFIYSKLNMKTSKWEKTDSFSCNVRHEGLKNYYLKKTISRSPGK	–	–	–	82.4
MXRA8-2-Fc (extracellular domain of human MXRA8-2 fused to mouse IgG2b Fc) (Fc fusion) ISVLLHSGSSVPAAAGSSVVSESAVSWEAGARAVLRCQSPRMVWTQDRLHDRQRVLHWDLRGPGGGPARRLLDLYSAGEQRVYEARDRGRLELSASAFDDGNFSLLIRAVEETDAGLYTCNLHHHYCHLYESLAVRLEVTDGPPATPAYWDGEKEVLAVARGAPALLTCVNRGHVWTDRHVEEAQQVVHWDRQPPGVPHDRADRLLDLYASGERRAYGPLFLRDRVAVGADAFERGDFSLRIEPLEVADEGTYSCHLHHHYCGLHERRVFHLTVAEPHAEPPPRGSPGNGSSHSGAPGPDPTLARGHNVINVIVPESRAHASVRSPSGPISTINPCPPCKECHKCPAPNLEGGPSVFIFPPNIKDVLMISLTPKVTCVVVDVSEDDPDVQISWFVNNVEVHTAQTQTHREDYNSTIRVVSTLPIQHQDWMSGKEFKCKVNNKDLPSPIERTISKIKGLVRAPQVYILPPPAEQLSRKDVSLTCLVVGFNPGDISVEWTSNGHTEENYKDTAPVLDSDGSYFIYSKLNMKTSKWEKTDSFSCNVRHEGLKNYYLKKTISRSPGK	0.05	–	–	–
